The text below walks through data of paper PMC6470172, “Conformational plasticity in the KcsA potassium channel pore helix revealed by homo-FRET studies” (Scientific Reports, 2019).

Data set [1] concerns the molecule itself. The data set can be described thus: SDS-PAGE of the tetramer; 13.5% SDS-PAGE of the detergent-solubilised protein; 20 mM Hepes pH 7 or 10 mM succinic acid pH 4, 5 mM DDM, 200 mM Cs+, Rb+, K+ or Na+, or TBA+.
Data set [2] concerns the molecule itself. Put plainly: FRET or BRET; homo-FRET between the W67 residues of the subunits, read by steady-state and time-resolved fluorescence anisotropy; 6 uM protein (monomer based), 5 mM DDM, pH 7 or pH 4, saturating monovalent cations or TBA+, room temperature.

B1: KcsA W26,68,87,113F quadruple mutant channel (W67 KcsA) (natural protein, S. lividans, UniProt P0A334 1-160, looked up)
chain: MPPMLSGLLARLVKLLLGRHGSALHFRAAGAATVLLVIVLLAGSYLAVLAERGAPGAQLITYPRALWFSVETATTVGYGDLYPVTLFGRLVAVVVMVAGITSFGLVTAALATFFVGREQERRGHFVRHSEKAAEEAYTRTTRALHERFDRLERMLDDNRR
notes: KcsA potassium channel cloned from S. lividans; single Trp (W67) left per subunit; called full-length in the discussion; Homotetramer; also called KcsA W67
In the case of B1, the “stoichiometry N” value in data set [1] turned out to be 4.

B2: KcsA W26,68,87,113F E71A mutant channel (W67 E71A KcsA) (natural protein, S. lividans, UniProt P0A334 1-160, looked up)
chain: MPPMLSGLLARLVKLLLGRHGSALHFRAAGAATVLLVIVLLAGSYLAVLAERGAPGAQLITYPRALWFSVATATTVGYGDLYPVTLFGRLVAVVVMVAGITSFGLVTAALATFFVGREQERRGHFVRHSEKAAEEAYTRTTRALHERFDRLERMLDDNRR
notes: KcsA potassium channel cloned from S. lividans; also called E71A W67 KcsA; E71A W67
Turning to B2, in data set [2], the binding result was “binds”.

The term stoichiometry N denotes the number of molecules, sites or subunits per partner or assembly.
